From publication PMC3686747

Legend:
[1] = molecular target: heat shock protein 60 (Hsp60), bovine brain (bovine (endogenous in bovine brain)) (UniProt P31081); experiment: co-IP; Mono S active fraction from bovine brain, anti-Hsp60 antibody; N-SMase activity recovered in the immunoprecipitates after resuspension in IP buffer (data not shown)
[2] = molecular target: heat shock protein 60 (Hsp60), bovine brain (bovine (endogenous in bovine brain)) (UniProt P31081); experiment: co-IP; active N-SMase fraction (Mono S or Superose 12) from bovine brain, holding both proteins together; anti-Hsp60 or anti-N-SMase2 antibody on Protein A Sepharose, 4 h at 4°C; N-SMase activity of supernatants and immunoprecipitates, immunoblot; with indicated concentrations of Triton X-100 in one panel

UniProt P31081, sequence (P31081 27-573): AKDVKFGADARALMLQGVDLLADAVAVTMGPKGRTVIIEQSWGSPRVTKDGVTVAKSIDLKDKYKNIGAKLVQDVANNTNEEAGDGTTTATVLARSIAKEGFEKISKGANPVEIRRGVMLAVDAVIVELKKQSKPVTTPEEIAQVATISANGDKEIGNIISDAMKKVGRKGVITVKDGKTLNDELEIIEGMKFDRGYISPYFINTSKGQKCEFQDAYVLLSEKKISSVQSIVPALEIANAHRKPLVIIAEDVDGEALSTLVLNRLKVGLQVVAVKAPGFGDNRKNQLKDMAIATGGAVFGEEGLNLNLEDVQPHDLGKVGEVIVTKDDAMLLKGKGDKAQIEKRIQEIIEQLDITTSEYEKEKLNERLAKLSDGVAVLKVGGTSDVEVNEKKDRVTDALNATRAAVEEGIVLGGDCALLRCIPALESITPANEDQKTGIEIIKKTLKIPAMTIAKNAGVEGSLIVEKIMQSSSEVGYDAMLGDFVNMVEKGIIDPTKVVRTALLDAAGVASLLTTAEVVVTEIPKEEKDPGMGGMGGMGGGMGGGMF

percent of total N-SMase activity recovered in the anti-Hsp60 immunoprecipitates [1]: 10%
percent of N-SMase activity precipitated by anti-Hsp60 antibody [2]: 20%
Substance: neutral sphingomyelinase 2 (N-SMase2), bovine brain, purified as N-SMase ε (enzyme)
